The text below walks through data of patent US20260199507A1 (MULTITUDE THERAPEUTICS, published 2026).

The term EC50 denotes the concentration giving half of the maximal effect. A lower EC50 goes with higher potency in that assay.

Test [1] concerns the target T1, CD142 (Tissue Factor) on BxPC3 human pancreatic cancer cells (human, UniProt P13726 33-295).
T1 construct: whole, on cells; also called TF
Put plainly: flow cytometry on BxPC3 cells. How it is done: Digested cells were centrifuged at 1000 rpm for 5 min and blocked with 10% goat serum (purchased from SenBeiJia Biological Technology Co., Ltd., Product No. SRJ-SE-GO012) for 30 min. Then Hu02 antibodies L1H1, L1H2, L1H3, L1H4, L1H5, L1H6, L2H1, L2H2, L2H3, L2H5, and L2H6 prepared in Example 5 were serially diluted 3 times with an initial concentration of 500 nM. After that, the Hu02 antibody was added to the cells and incubated for 1 h. After washing twice with PBS, FITC-labeled goat anti-human antibody (purchased from Sigma, product No. FS9512-2ML) was added at 1:500 and incubated for 1 h. The results were analyzed by flow cytometry (BD biosciences, product No. BD Accuri C6 Plus) after washing twice with PBS.
A general note: In flow cytometry, cells or beads pass a laser one at a time.

For test [2], the target named is T1, CD142 (Tissue Factor) on BxPC3 human …. Nature of the test: flow cytometry on BxPC3 cells, antibody at 20 ug/mL, FITC goat anti-mouse detection. The procedure: Digested cells were centrifuged at 1000 rpm for 5 min and blocked with 10% goat serum (purchased from SenBeiJia Biological Technology Co., Ltd., Product No. SRJ-SE-GOO12) for 30 min. Then Mu01 and Mu02 antibodies respectively prepared in Example 4 and Example 5 were added at a final concentration of 20 μg/mL and incubated for 1 h. After washing with Phosphate buffer (PBS, PH 7.2-7.4) for 2 times, FITC-labeled goat anti-mouse antibody (purchased from Jackson ImmunoResearch, No. 115-545-003) was added at 1:500 and incubated for 1 hour. Analyzed the resulting product by flow cytometry after washing with PBS for 2 times.

Test [3] shares this target. Put plainly: flow cytometry on BxPC3 cells, 3-fold dilutions from 500 nM, FITC goat anti-human detection. The procedure:
Digested cells were centrifuged at 1000 rpm for 5 min and blocked with 10% goat serum (purchased from SenBeiJia Biological Technology Co., Ltd., Product No. SRJ-SE-GO012) for 30 min. Then Hu01 antibodies L5H2, L5H1, L3H1, L3H2 prepared in Example 4 were diluted with a 3-fold gradient at the initial concentration of 500 nM. After that, the Hu01 antibody was added to the cells and incubated for 1 h. After washing twice with PBS, FITC-labeled goat anti-human antibody (purchased from Sigma, product No. FS9512-2ML) was added at 1:500 and incubated for 1 h. The results were analyzed by flow cytometry after washing twice with PBS.

B1: Hu02 L1H1 (antibody, human IgG1, kappa, V domains shown)
VH: EVQLVESGGGLVQPGGSLRLSCAASGFTFTEYHMSWVRQAPGKGLEWVGFIRNRANGYTTEYAASVKGRFTISRDDSKNSLYLQMNSLKTEDTAVYYCARLTMVVAEFDYWGQGTLVTVSS
VL: DIQMTQSPSSLSASVGDRVTITCQASQDINKYLNWYQHKPGKGPKLLIYYTSTLQTGVPSRFSGSGSGTDFTFTVSNLQPEDIATYYCLQYDNLLTFGQGTKLEIKR
Molecule B1 registered a half-maximal effective concentration (EC50) in test [1] of 11.6 nM. This counts as double-digit nanomolar.

B2: Hu02 L2H1 (antibody, human IgG1, kappa, V domains shown)
VH: EVQLVESGGGLVQPGGSLRLSCAASGFTFTEYHMSWVRQAPGKGLEWVGFIRNRANGYTTEYAASVKGRFTISRDDSKNSLYLQMNSLKTEDTAVYYCARLTMVVAEFDYWGQGTLVTVSS
VL: AIQMTQSPSSLSASVGERVTITCRASQDINKYLNWYQHKPGKGPKLLIYYTSTLQTGVPSRFSGSGSGTDFTFTVSNLQPEDIATYYCLQYDNLLTFGQGTKLEIKR
Molecule B2 registered a concentration for a half-maximal effect (EC50) in test [1] of 18.1 nM.

B3: Hu02 L2H2 (antibody, human IgG1, kappa, V domains shown)
VH: EVQLVESGGGLVQPGGSLRLSCAASGFTFTEYHMSWVRQAPGKGLEWVGFIRNRANAYTTEYAASVKGRFTISRDDSKNSLYLQMNSLKTEDTAVYYCARLTMVVAEFDYWGQGTLVTVSS
VL: AIQMTQSPSSLSASVGERVTITCRASQDINKYLNWYQHKPGKGPKLLIYYTSTLQTGVPSRFSGSGSGTDFTFTVSNLQPEDIATYYCLQYDNLLTFGQGTKLEIKR
In test [1], B3 gave an EC50 of 18.3 nM. This EC50 and that of the molecule before are within 1.5-fold of each other.

B4: Hu02-L1H2 (antibody, human IgG1, kappa, V domains shown)
VH: EVQLVESGGGLVQPGGSLRLSCAASGFTFTEYHMSWVRQAPGKGLEWVGFIRNRANAYTTEYAASVKGRFTISRDDSKNSLYLQMNSLKTEDTAVYYCARLTMVVAEFDYWGQGTLVTVSS
VL: DIQMTQSPSSLSASVGDRVTITCQASQDINKYLNWYQHKPGKGPKLLIYYTSTLQTGVPSRFSGSGSGTDFTFTVSNLQPEDIATYYCLQYDNLLTFGQGTKLEIKR
In test [1], B4 gave a concentration giving a half-maximal response (EC50) of 13.2 nM.

B5: Hu02 L1H5 (antibody, human IgG1, kappa, V domains shown)
VH: EVQLVESGGGLVQPGGSLRLSCAASGFTFTEYHMSWVRQAPGKGLEWVGFIRNRANAYTTEYAASVKGRFTISRDNSKNSLYLQMNTLRTEDTAVYYCARLTMVVAEFDYWGQGTLVTVSS
VL: DIQMTQSPSSLSASVGDRVTITCQASQDINKYLNWYQHKPGKGPKLLIYYTSTLQTGVPSRFSGSGSGTDFTFTVSNLQPEDIATYYCLQYDNLLTFGQGTKLEIKR
Turning to B5, the EC50 in test [1] was determined as 9.48 nM. The EC50 values of the last two molecules are within 1.5-fold of each other.

B6: Hu02 L2H3 (antibody, human IgG1, kappa, V domains shown)
VH: EVQLVESGGGLVQPGGSLRLSCAASGFTFTEYHMSWVRQAPGKGLEWVGFIRNRAQGYTTEYAASVKGRFTISRDDSKNSLYLQMNSLKTEDTAVYYCARLTMVVAEFDYWGQGTLVTVSS
VL: AIQMTQSPSSLSASVGERVTITCRASQDINKYLNWYQHKPGKGPKLLIYYTSTLQTGVPSRFSGSGSGTDFTFTVSNLQPEDIATYYCLQYDNLLTFGQGTKLEIKR
Consider B6, for which, in test [1], a half-maximal response (EC50) required 25.2 nM.

B7: Hu02 L2H6 (antibody, human IgG1, kappa, V domains shown)
VH: EVQLVESGGGLVQPGGSLRLSCAASGFTFTEYHMSWVRQAPGKGLEWVGFIRNRAQGYTTEYAASVKGRFTISRDNSKNSLYLQMNTLRTEDTAVYYCARLTMVVAEFDYWGQGTLVTVSS
VL: AIQMTQSPSSLSASVGERVTITCRASQDINKYLNWYQHKPGKGPKLLIYYTSTLQTGVPSRFSGSGSGTDFTFTVSNLQPEDIATYYCLQYDNLLTFGQGTKLEIKR
Regarding B7, it took 6.54 nM to reach a half-maximal effect in test [1] (EC50).

B8: Hu02 L1H3 (antibody, human IgG1, kappa, V domains shown)
VH: EVQLVESGGGLVQPGGSLRLSCAASGFTFTEYHMSWVRQAPGKGLEWVGFIRNRAQGYTTEYAASVKGRFTISRDDSKNSLYLQMNSLKTEDTAVYYCARLTMVVAEFDYWGQGTLVTVSS
VL: DIQMTQSPSSLSASVGDRVTITCQASQDINKYLNWYQHKPGKGPKLLIYYTSTLQTGVPSRFSGSGSGTDFTFTVSNLQPEDIATYYCLQYDNLLTFGQGTKLEIKR
B8: in test [1], the EC50 is 19.7 nM.

B9: Hu02 L1H6 (antibody, human IgG1, kappa, V domains shown)
VH: EVQLVESGGGLVQPGGSLRLSCAASGFTFTEYHMSWVRQAPGKGLEWVGFIRNRAQGYTTEYAASVKGRFTISRDNSKNSLYLQMNTLRTEDTAVYYCARLTMVVAEFDYWGQGTLVTVSS
VL: DIQMTQSPSSLSASVGDRVTITCQASQDINKYLNWYQHKPGKGPKLLIYYTSTLQTGVPSRFSGSGSGTDFTFTVSNLQPEDIATYYCLQYDNLLTFGQGTKLEIKR
With B9, the concentration giving a half-maximal response (EC50) in test [1] was 10.2 nM. This EC50 is about 1.9-fold lower than that of the molecule before.

B10: Hu02 L1H4 (antibody, human IgG1, kappa, V domains shown)
VH: EVQLVESGGGLVQPGGSLRLSCAASGFTFTEYHMSWVRQAPGKGLEWVGFIRNRANGYTTEYAASVKGRFTISRDNSKNSLYLQMNTLRTEDTAVYYCARLTMVVAEFDYWGQGTLVTVSS
VL: DIQMTQSPSSLSASVGDRVTITCQASQDINKYLNWYQHKPGKGPKLLIYYTSTLQTGVPSRFSGSGSGTDFTFTVSNLQPEDIATYYCLQYDNLLTFGQGTKLEIKR
For B10, a half-maximal effect in test [1] (EC50) was put at 6.39 nM.

B11: Hu02 L2H5 (antibody, human IgG1, kappa, V domains shown)
VH: EVQLVESGGGLVQPGGSLRLSCAASGFTFTEYHMSWVRQAPGKGLEWVGFIRNRANAYTTEYAASVKGRFTISRDNSKNSLYLQMNTLRTEDTAVYYCARLTMVVAEFDYWGQGTLVTVSS
VL: AIQMTQSPSSLSASVGERVTITCRASQDINKYLNWYQHKPGKGPKLLIYYTSTLQTGVPSRFSGSGSGTDFTFTVSNLQPEDIATYYCLQYDNLLTFGQGTKLEIKR
In turn, B11 returned an EC50 in test [1] of 8.12 nM.

B12: Ch02 (antibody, human IgG1, kappa, V domains shown)
VH: EVKLVESGGGLVQPGGSLRLSCATSGFTFTEYHMSWVRQPPGKALEWLGFIRNRANGYTTEYSASVKGRFTISRDNSQNILYLQMNTLRTEDSATYYCARLTMVVAEFDYWGQGTTLTVSS
VL: DIQMTQSPSSLSASLGGEVTITCKASQDINKYIAWYQHKPGKGPRLLIHYTSTLQPGIPSRFSGSGSGRDYSFSVSNLEPEDIATYYCLQYDNLLTFGAGTKLELKR
notes: also called chimeric antibody Ch02; Ch02 antibody
Take B12: a half-maximal effect in test [1] (EC50) was put at 19.2 nM.

B13: Mu01 (antibody, V domains shown)
VH: QVQLQQSGAELVRPGSSVKISCKASGYTFSSYWMYWVKQRPGQGLEWIGQIYPGDGDSNYNENFKGKATLTADKSSSTAYMQLSSLTSEDSAVYFCTREGYGNRFAYWGQGTLVTVSA
VL: QIVLTQSPALMSASPGEKVTMTCSASSSVSYMYWYQQKPRSSPKPWINLTSNLASGVPARFSGRGSGTSYSLTISSMEAEDAATYYCQQWSYNPPTFGGGTKLEIK
notes: Murine hybridoma antibody purified from ascites; also called monoclonal antibody Mu01; antibody Mu01
B13: the binding result in test [2] was “binds”.

B14: Hu01 L5H2 (antibody, human IgG1, kappa, V domains shown)
VH: QVQLVQSGAEVKRPGSSVKVSCKASGYTFSSYWMYWVRQAPGQGLEWIGQIYPGDGDSNYNENFQGRVTITADKSTSTAYMELSSLTSEDSAVYFCTREGYGNRFAYWGQGTLVTVSS
VL: EIVLTQSPALLSLSPGERATLSCSASSSVSYMYWYQQKPGQAPRLLIQLTSNLASGVPARFSGRGSGTDFTLTISSLEPEDFAVYYCQQWSYNPPTFGGGTKVEIKR
Regarding B14, in test [3], the binding result is “binds”.

B15: Hu01 L5H1 (antibody, human IgG1, kappa, V domains shown)
VH: QVQLVQSGAEVKRPGSSVKVSCKASGYTFSSYWMYWVRQAPGQGLEWIGQIYPGDGDSNYNENFQGRVTITADKSTSTAYMELSSLRSEDTAVYYCTREGYGNRFAYWGQGTLVTVSS
VL: EIVLTQSPALLSLSPGERATLSCSASSSVSYMYWYQQKPGQAPRLLIQLTSNLASGVPARFSGRGSGTDFTLTISSLEPEDFAVYYCQQWSYNPPTFGGGTKVEIKR
For B15, the binding result in test [3] is reported as “binds”.

B16: Hu01 L3H2 (antibody, human IgG1, kappa, V domains shown)
VH: QVQLVQSGAEVKRPGSSVKVSCKASGYTFSSYWMYWVRQAPGQGLEWIGQIYPGDGDSNYNENFQGRVTITADKSTSTAYMELSSLTSEDSAVYFCTREGYGNRFAYWGQGTLVTVSS
VL: EIVLTQSPALMSLSPGERATLSCSASSSVSYMYWYQQKPRSAPRPWIQLTSNLASGVPARFSGRGSGTDFSLTISSLEAEDFATYYCQQWSYNPPTFGGGTKVEIKR
For the molecule B16, the binding result in test [3] is “binds”.

B17: Hu01-L3H1 (antibody, human IgG1, kappa, V domains shown)
VH: QVQLVQSGAEVKRPGSSVKVSCKASGYTFSSYWMYWVRQAPGQGLEWIGQIYPGDGDSNYNENFQGRVTITADKSTSTAYMELSSLRSEDTAVYYCTREGYGNRFAYWGQGTLVTVSS
VL: EIVLTQSPALMSLSPGERATLSCSASSSVSYMYWYQQKPRSAPRPWIQLTSNLASGVPARFSGRGSGTDFSLTISSLEAEDFATYYCQQWSYNPPTFGGGTKVEIKR
notes: also called Hu01 antibody L3H1
As to B17, the binding result in test [3] is given as “binds”.
